For this assay, the target named is horse CytC K87W (horse, UniProt P00004 1-105, K87W). Kind of assay: ITC. In general terms: In ITC the heat of successive injections is recorded.

B1: full-length human Apaf-1 (residues 1–1248) (natural protein)
chain: MDAKARNCLLQHREALEKDIKTSYIMDHMISDGFLTISEEEKVRNEPTQQQRAAMLIKMILKKDNDSYVSFYNALLHEGYKDLAALLHDGIPVVSSSSGKDSVSGITSYVRTVLCEGGVPQRPVVFVTRKKLVNAIQQKLSKLKGEPGWVTIHGMAGCGKSVLAAEAVRDHSLLEGCFPGGVHWVSVGKQDKSGLLMKLQNLCTRLDQDESFSQRLPLNIEEAKDRLRILMLRKHPRSLLILDDVWDSWVLKAFDSQCQILLTTRDKSVTDSVMGPKYVVPVESSLGKEKGLEILSLFVNMKKADLPEQAHSIIKECKGSPLVVSLIGALLRDFPNRWEYYLKQLQNKQFKRIRKSSSYDYEALDEAMSISVEMLREDIKDYYTDLSILQKDVKVPTKVLCILWDMETEEVEDILQEFVNKSLLFCDRNGKSFRYYLHDLQVDFLTEKNCSQLQDLHKKIITQFQRYHQPHTLSPDQEDCMYWYNFLAYHMASAKMHKELCALMFSLDWIKAKTELVGPAHLIHEFVEYRHILDEKDCAVSENFQEFLSLNGHLLGRQPFPNIVQLGLCEPETSEVYQQAKLQAKQEVDNGMLYLEWINKKNITNLSRLVVRPHTDAVYHACFSEDGQRIASCGADKTLQVFKAETGEKLLEIKAHEDEVLCCAFSTDDRFIATCSVDKKVKIWNSMTGELVHTYDEHSEQVNCCHFTNSSHHLLLATGSSDCFLKLWDLNQKECRNTMFGHTNSVNHCRFSPDDKLLASCSADGTLKLWDATSANERKSINVKQFFLNLEDPQEDMEVIVKCCSWSADGARIMVAAKNKIFLFDIHTSGLLGEIHTGHHSTIQYCDFSPQNHLAVVALSQYCVELWNTDSRSKVADCRGHLSWVHGVMFSPDGSSFLTSSDDQTIRLWETKKVCKNSAVMLKQEVDVVFQENEVMVLAVDHIRRLQLINGRTGQIDYLTEAQVSCCCLSPHLQYIAFGDENGAIEILELVNNRIFQSRFQHKKTVWHIQFTADEKTLISSSDDAEIQVWNWQLDKCIFLRGHQETVKDFRLLKNSRLLSWSFDGTVKVWNIITGNKEKDFVCHQGTVLSCDISHDATKFSSTSADKTAKIWSFDLLLPLHELRGHNGCVRCSAFSVDSTLLATGDDNGEIRIWNVSNGELLHLCAPLSEEGAATHGGWVTDLCFSPDGKMLISAGGYIKWWNVVTGESSQTFYTNGTNLKKIHVSPDFKTYVTVDNLGILYILQTLE
For the molecule B1, the Ka turned out to be 1.24e+06 M⁻¹.
